# Test results published in PMC9935901 (Signal Transduction and Targeted Therapy, 2023).
# T1: GST-tagged full-length β-catenin (UniProt P35222 1-781)
# T1 construct: β-catenin, full length; also called GST-β-catenin
# T1 sequence (looked up): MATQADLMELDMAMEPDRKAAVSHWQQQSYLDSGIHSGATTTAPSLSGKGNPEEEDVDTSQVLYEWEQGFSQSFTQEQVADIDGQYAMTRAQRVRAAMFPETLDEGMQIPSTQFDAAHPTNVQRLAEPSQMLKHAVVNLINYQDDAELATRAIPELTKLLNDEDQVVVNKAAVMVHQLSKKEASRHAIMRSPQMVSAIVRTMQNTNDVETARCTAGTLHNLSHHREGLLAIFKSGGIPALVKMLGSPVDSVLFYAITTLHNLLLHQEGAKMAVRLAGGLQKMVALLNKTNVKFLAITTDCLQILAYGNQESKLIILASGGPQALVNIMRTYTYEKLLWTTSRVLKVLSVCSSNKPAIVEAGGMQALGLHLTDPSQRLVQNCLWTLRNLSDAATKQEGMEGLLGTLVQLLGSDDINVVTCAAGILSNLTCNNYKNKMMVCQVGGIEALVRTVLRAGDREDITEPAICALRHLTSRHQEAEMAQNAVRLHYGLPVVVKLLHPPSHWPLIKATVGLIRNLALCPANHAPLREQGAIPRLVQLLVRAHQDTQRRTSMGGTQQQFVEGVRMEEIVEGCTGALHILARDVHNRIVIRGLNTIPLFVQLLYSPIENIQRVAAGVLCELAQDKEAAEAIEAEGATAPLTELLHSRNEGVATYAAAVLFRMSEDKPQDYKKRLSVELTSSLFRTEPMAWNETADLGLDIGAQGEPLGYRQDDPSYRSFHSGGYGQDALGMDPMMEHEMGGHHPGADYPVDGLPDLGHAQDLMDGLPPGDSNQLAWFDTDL
# B1: His-tagged FAM83A (natural protein, UniProt Q86UY5 1-434, looked up)
# chain: MSRSRHLGKIRKRLEDVKSQWVRPARADFSDNESARLATDALLDGGSEAYWRVLSQEGEVDFLSSVEAQYIQAQAREPPCPPDTLGGAEAGPKGLDSSSLQSGTYFPVASEGSEPALLHSWASAEKPYLKEKSSATVYFQTVKHNNIRDLVRRCITRTSQVLVILMDVFTDVEIFCDILEAANKRGVFVCVLLDQGGVKLFQEMCDKVQISDSHLKNISIRSVEGEIYCAKSGRKFAGQIREKFIISDWRFVLSGSYSFTWLCGHVHRNILSKFTGQAVELFDEEFRHLYASSKPVMGLKSPRLVAPVPPGAAPANGRLSSSSGSASDRTSSNPFSGRSAGSHPGTRSVSASSGPCSPAAPHPPPPPRFQPHQGPWGAPSPQAHLSPRPHDGPPAAVYSNLGAYRPTRLQLEQLGLVPRLTPTWRPFLQASPHF
# notes: FAM83A; also called His-FAM83A
# Molecular target: T1, GST-tagged full-length β-catenin
# Experiment: pull-down; purified GST-tagged full-length β-catenin incubated with purified His-tagged FAM83A, pulled down by GST beads, western blotting
# Settings: both partners purified
binder,measurement,value
B1,binding result,binds
